Data as given in patent publication US20210340201A1 (published 2021).
Blank lines part the entries; values can stand above or below the binder they belong to.

Legend:
[1] = biological target: T1, KRAS G12V peptide on HLA-DRB1*11:04 (human); test: cytokine release
T1 peptide: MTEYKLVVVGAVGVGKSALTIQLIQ
Procedure: (§1) ELISA assays were performed by incubating 50,000 T cells in 96 well round bottom plates with 100,000 autologous B cells or B-LCL lines pulsed with specific concentrations of peptides in RPMI (GIBCO™) supplemented with 5% heat inactivated fetal bovine serum. IFN-γ in supernatants was diluted 1:1, 1:10, and 1:100 and quantitated using human IFN-γ ELISA kit (EBIOSCIENCE™) in technical duplicate or triplicate. HLA blocking experiments were carried out by adding 20 μg/ml antibody anti class I (BIOLEGEND®, cat. 311411) anti HLA DR (BIOLEGEND® clone L243, cat. 307611) or HLA-DQ (ABCAM™, clone spv-I3, cat. ab23632) to the antigen presenting cells one hour prior to adding peptide. ELISpot assays were performed by incubating 20,000-100,000 T cells with 200,000 autologous B cells pulsed with 20 μg/ml of each peptide in CTL medium using the human IFN-γ ELISPOT-PRO™ kit (MABTECH™) according to the manufacturer's instructions. For intracellular IFN-γ staining, PBMC (100,000) were incubated with autologous B cells (100,000) pulsed with the indicated peptides (20 μg/ml) in the presence of brefeldin A (GOLGIPLUG™, BD BIOSCIENCES™) and then fixed and permeabilized using the BD™ intracellular staining kit (BD BIOSCIENCES™) and analyzed using a FACSCANTO™ II flow cytometer.

[2] = biological target: T2, KRAS G12V peptide on HLA-DRB1*11:01 (human); test: cytokine release
T2 peptide: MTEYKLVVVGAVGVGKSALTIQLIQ
Procedure: as §1

- binding result [1]: recognises
- binding result [2]: recognises
B1: KRAS G12V clone 9 TCR (TCR, V domains shown)
Valpha: SVSQHNHHVILSEAASLELGCNYSYGGTVNLFWYVQYPGQHLQLLLKYFSGDPLVKGIKGFEAEFIKSKFSFNLRKPSVQWSDTAEYFCAVTVVNAGNNRKLIWGLGTSLAVNP
Vbeta: AGVIQSPRHEVTEMGQEVTLRCKPISGHDYLFWYRQTMMRGLELLIYFNNNVPIDDSGMPEDRFSAKMPNASFSTLKIQPSEPRDSAVYFCASSLGLPGTDTQYFGPGTRLTVL

- binding result [1]: recognises
- binding result [2]: recognises
B2: KRAS G12V clone 3 TCR (TCR, V domains shown)
Valpha: AQSVTQPDIHITVSEGASLELRCNYSYGATPYLFWYVQSPGQGLQLLLKYFSGDTLVQGIKGFEAEFKRSQSSFNLRKPSVHWSDAAEYFCAVGRSNSGGYQKVTFGIGTKLQVIP
Vbeta: IHQWPATLVQPVGSPLSLECTVEGTSNPNLYWYRQAAGRGLQLLFYSVGIGQISSEVPQNLSASRPQDRQFILSSKKLLLSDSGFYLCAWSALAGARDTQYFGPGTRLTVL
